Results published in patent US20240376214A1, “ANTI-C-MET ANTIBODIES AND ANTIBODY-DRUG CONJUGATES” (BYONDIS B.V., priority 2021, published 2024).

B1: 41C-chi-mAb1 (antibody, human IgG1, kappa, V domains shown)
VH: EVQLQQSGPELLKPGASVKMSCKASGYIFTDYFMNWVKQSCGKSLEWIGRVNPKNGDITYNQKFRGKATLTVDKSLTTAYMQLNSLTSEDSAVYFCAYDGYYDGMDFWGQGTSVTVSS
VL: ENVLTQSPAIMSASPGEKVTMTCRANSSVSSNFLHWYQQKSGASPKLWISSTSNLAFGVPPRFSGSGSGTSYSLTISSVEAEDAATYYCHQYSGHPFTFGSGTKLEIKR
notes: Chimeric IgG1 kappa with an engineered cysteine at HC position 41 (Kabat); also called HC-41C chimeric antibody mAb1
B2: wt-chi-mAb1: wild-type chimeric anti-c-Met IgG1 antibody, VH SEQ ID NO:1, VL SEQ ID NO:2 (antibody, V domains shown)
VH: EVQLQQSGPELLKPGASVKMSCKASGYIFTDYFMNWVKQSHGKSLEWIGRVNPKNGDITYNQKFRGKATLTVDKSLTTAYMQLNSLTSEDSAVYFCAYDGYYDGMDFWGQGTSVTVSS
VL: ENVLTQSPAIMSASPGEKVTMTCRANSSVSSNFLHWYQQKSGASPKLWISSTSNLAFGVPPRFSGSGSGTSYSLTISSVEAEDAATYYCHQYSGHPFTFGSGTKLEIK
modifications: human IgG1 constant regions; HCVR; LCVR
B3: 41C-chi-mAb1: HC-41C chimeric anti-c-Met IgG1 antibody, VH SEQ ID NO:7, VL SEQ ID NO:2 (antibody, V domains shown)
VH: EVQLQQSGPELLKPGASVKMSCKASGYIFTDYFMNWVKQSCGKSLEWIGRVNPKNGDITYNQKFRGKATLTVDKSLTTAYMQLNSLTSEDSAVYFCAYDGYYDGMDFWGQGTSVTVSS
VL: ENVLTQSPAIMSASPGEKVTMTCRANSSVSSNFLHWYQQKSGASPKLWISSTSNLAFGVPPRFSGSGSGTSYSLTISSVEAEDAATYYCHQYSGHPFTFGSGTKLEIK
modifications: IgG1 constant regions; HCVR - VH H41C; LCVR
B4: wt-chi-mAb2 (antibody, human IgG1, kappa, V domains shown)
VH: QVQLQQSGAELVRPGASVKLSCKASGYVFPDYEMHWVKQTPVHGLEWIGAFDPETGDTTYNQNFKGKATLTADKASSTAYMDLRSLTSGDSAVYYCARDYKYLYYYAMDNWGQGTSVTVSS
VL: QIVLTQSPAIMSASLGERVTMTCTASSSITSSYLHWYQQKPGSSPKLWIYSTTNLASGVPGRFSGSGSGTSFSLTISSMEAEDAATYYCHQYRRSPLTFGAGTKLELKR
notes: Mouse/human chimeric IgG1 kappa; also called wild-type chimeric antibody mAb2
B5: 41C-chi-mAb2: HC-41C chimeric anti-c-Met IgG1 antibody, VH SEQ ID NO:8, VL SEQ ID NO:4 (antibody, V domains shown)
VH: QVQLQQSGAELVRPGASVKLSCKASGYVFPDYEMHWVKQTCVHGLEWIGAFDPETGDTTYNQNFKGKATLTADKASSTAYMDLRSLTSGDSAVYYCARDYKYLYYYAMDNWGQGTSVTVSS
VL: QIVLTQSPAIMSASLGERVTMTCTASSSITSSYLHWYQQKPGSSPKLWIYSTTNLASGVPGRFSGSGSGTSFSLTISSMEAEDAATYYCHQYRRSPLTFGAGTKLELK
modifications: IgG1 constant regions; HCVR - VH P41C; LCVR
B6: wt-chi-mAb2: wild-type chimeric anti-c-Met IgG1 antibody, VH SEQ ID NO:3, VL SEQ ID NO:4 (antibody, V domains shown)
VH: QVQLQQSGAELVRPGASVKLSCKASGYVFPDYEMHWVKQTPVHGLEWIGAFDPETGDTTYNQNFKGKATLTADKASSTAYMDLRSLTSGDSAVYYCARDYKYLYYYAMDNWGQGTSVTVSS
VL: QIVLTQSPAIMSASLGERVTMTCTASSSITSSYLHWYQQKPGSSPKLWIYSTTNLASGVPGRFSGSGSGTSFSLTISSMEAEDAATYYCHQYRRSPLTFGAGTKLELK
modifications: human IgG1 constant regions; HCVR; LCVR
B7: 41C-chi-mAb2 (antibody, human IgG1, kappa, V domains shown)
VH: QVQLQQSGAELVRPGASVKLSCKASGYVFPDYEMHWVKQTCVHGLEWIGAFDPETGDTTYNQNFKGKATLTADKASSTAYMDLRSLTSGDSAVYYCARDYKYLYYYAMDNWGQGTSVTVSS
VL: QIVLTQSPAIMSASLGERVTMTCTASSSITSSYLHWYQQKPGSSPKLWIYSTTNLASGVPGRFSGSGSGTSFSLTISSMEAEDAATYYCHQYRRSPLTFGAGTKLELKR
notes: Chimeric IgG1 kappa with an engineered cysteine at HC position 41 (Kabat); also called HC-41C chimeric antibody mAb2
B8: wt-chi-mAb3 (antibody, human IgG1, kappa, V domains shown)
VH: QIQLQQSGPELVKPGASVKISCKASGYTFTDYYLNWVKQRPGQGLEWIGLIFPGNDKTEYSEKFKGKATLTVDTSSSTAYIQLSRLSSEDSAIYFCSGGDYGGFVYWGQGTLVTVSS
VL: DIQMTQSPTSLSASVGETVTITCGASENIYGALNWYQRKQGKSPQLLIYGATNLADGMSSRFSGSGSGRQFSLKINSLHPDDVATYFCQNVLSSPLTFGSGTKLEIKR
notes: Mouse/human chimeric IgG1 kappa; also called wild-type chimeric antibody mAb3
B9: wt-chi-mAb3: wild-type chimeric anti-c-Met IgG1 antibody, VH SEQ ID NO:5, VL SEQ ID NO:6 (antibody, V domains shown)
VH: QIQLQQSGPELVKPGASVKISCKASGYTFTDYYLNWVKQRPGQGLEWIGLIFPGNDKTEYSEKFKGKATLTVDTSSSTAYIQLSRLSSEDSAIYFCSGGDYGGFVYWGQGTLVTVSS
VL: DIQMTQSPTSLSASVGETVTITCGASENIYGALNWYQRKQGKSPQLLIYGATNLADGMSSRFSGSGSGRQFSLKINSLHPDDVATYFCQNVLSSPLTFGSGTKLEIK
modifications: human IgG1 constant regions; HCVR; LCVR
B10: 41C-chi-mAb3: HC-41C chimeric anti-c-Met IgG1 antibody, VH SEQ ID NO:9, VL SEQ ID NO:6 (antibody, V domains shown)
VH: QIQLQQSGPELVKPGASVKISCKASGYTFTDYYLNWVKQRCGQGLEWIGLIFPGNDKTEYSEKFKGKATLTVDTSSSTAYIQLSRLSSEDSAIYFCSGGDYGGFVYWGQGTLVTVSS
VL: DIQMTQSPTSLSASVGETVTITCGASENIYGALNWYQRKQGKSPQLLIYGATNLADGMSSRFSGSGSGRQFSLKINSLHPDDVATYFCQNVLSSPLTFGSGTKLEIK
modifications: IgG1 constant regions; HCVR - VH P41C; LCVR
B11: 41C-chi-mAb3 (antibody, human IgG1, kappa, V domains shown)
VH: QIQLQQSGPELVKPGASVKISCKASGYTFTDYYLNWVKQRCGQGLEWIGLIFPGNDKTEYSEKFKGKATLTVDTSSSTAYIQLSRLSSEDSAIYFCSGGDYGGFVYWGQGTLVTVSS
VL: DIQMTQSPTSLSASVGETVTITCGASENIYGALNWYQRKQGKSPQLLIYGATNLADGMSSRFSGSGSGRQFSLKINSLHPDDVATYFCQNVLSSPLTFGSGTKLEIKR
notes: Chimeric IgG1 kappa with an engineered cysteine at HC position 41 (Kabat); also called HC-41C chimeric antibody mAb3
B12: ADC3b (antibody, human IgG1, kappa, V domains shown)
VH: QVQLVQSGAEVKKPGASVKVSCKASGYTFTDYYLNWVRQACGQGLEWMGLIFPGNDKTEYSEKFKGRVTLTTDTSISTAYMELSSLTSDDTALYYCSGGDYGGFVYWGQGTLVTVSS
VL: DIQMTQSPSSLSASVGDRVTISCGASENIYGALNWYQQQPGKAPKVLIFGATNLADGVPSRFSGSGSGTDFTLTISSLQPEDFATYYCQNVLSSPLTFGQGTKLEIKR
modifications: vc-seco-DUBA linker-drug on the engineered cysteine at HC position 41 (Kabat); DAR 1.9
notes: Antibody-drug conjugate of mAb3b; also called mAb3b-vc-seco-DUBA

Experiments:
[1] = target: T1, human c-Met (HGFR), full length, on the cell surface (human, UniProt P08581 25-1390); assay: flow cytometry on MKN45, NCI-H596 and PC-3 cells
T1 construct: Endogenous c-Met on human tumor cell lines MKN45, NCI-H596, PC-3 and HepG2; also called hepatocyte growth factor receptor; mesenchymal-epithelial transition factor
Protocol: Cellular binding of the 14 wild-type chimeric and the 14 HC-41C chimeric anti-c-Met antibodies was studied in human c-Met-positive tumor cell lines MKN45, NCI-H596 and PC-3, rhesus c-Met-positive tumor cell line 4 MBr-5, and human c-Met-negative tumor cell line MDA-MB-175-VII. Cells were used around 90% of confluence at the time of an assay, detached with Trypsin-Versene (EDTA) (Lonza) for 5-10 minutes, washed and adjusted to a concentration of 1×10⁶ cells/mL in ice-cold FACS buffer (PBS 1×, 0.1% v/w BSA, 0.02% v/v sodium azide (NaN₃)). Staining was performed in 96-well round-bottomed microtiter plates using ice-cold reagents/solutions at 4° C. to prevent the modulation and internalization of surface antigens. 100,000 cells/well were added to 96-well plates (100 μL/well) and centrifuged at 300×g for 3 minutes. In case of pre-incubation with HGF (paracrine cell lines only), the cells were resuspended in 50 ng/mL recombinant human HGF in FACS buffer (50 μL/well) and incubated for 30 minutes at 4° C., followed by two wash steps with 150 μL FACS buffer. Supernatant was discarded and cells were stained for 30 minutes with 50 μL of each antibody. Serial dilutions were made in ice-cold FACS buffer. Cells were washed twice by centrifugation at 300×g for 3 minutes and resuspended in 50 μL 6000-times diluted secondary F(ab′)₂ goat anti-human IgG (Fc fragment specific) antibody APC-conjugated (Jackson ImmunoResearch). Following a 30-minute incubation on ice, cells were washed again 2 times and resuspended in 150 μL ice-cold FACS buffer for FACS analysis. For analysis of the data, the Median Fluorescence Intensity (MFI) values were obtained.

c-Met = target: T2, c-Met (Homo sapiens, UniProt P08581, DEL964-1010); assay: Functionality of chimeric antibodies, stimulation of proliferation experiment in NCI-H596 cells; type: cell-based
T2 construct: endogenous in cells; host or cells: NCI-H596
Source text: From this perspective, although all three wt/41C chimeric mAbs were humanized and studied in further experiments, wt/41C-chi-mAb3 is the most preferred chimeric anti-c-Met antibody to further develop into an ADC for treatment of a cancer indication.

[2] = target: T1, human c-Met (HGFR), full length, on the …; assay: cell binding on c-Met positive MKN45 cells, fluorescence readout RFU (R-PE), mean ± S.E.M. of two experiments in duplicate
[3] = target: T1, human c-Met (HGFR), full length, on the …; assay: cell-based or functional assay

Row | Molecule | binding result [1] | Functionality (c-Met) | also measured
1 | B1 | binds |  | 
2 | B2 |  | Partial agonist | 
3 | B3 |  | Partial agonist | 
4 | B4 | binds |  | 
5 | B5 |  | Partial agonist | 
6 | B6 |  | Partial agonist | 
7 | B7 | binds |  | 
8 | B8 | binds |  | 
9 | B9 |  | Neutral | 
10 | B10 |  | Neutral | 
11 | B11 | binds |  | 
12 | B12 |  |  | EC50 (read off the curve) [2]: ~0.04 mg/L; Efficacy (%), in vitro cytotoxicity, MKN-45, -HGF [3]: 84%; Efficacy (%), in vitro cytotoxicity, NCI-H596, +HGF [3]: 44%; Efficacy (%), in vitro cytotoxicity, NCI-H596, -HGF [3]: 10%; Efficacy (%), in vitro cytotoxicity, PC-3, +HGF [3]: 75%; Efficacy (%), in vitro cytotoxicity, PC-3, -HGF [3]: 75%; IC50 1, in vitro cytotoxicity, PC-3, -HGF [3]: 0.05 nM; IC50, in vitro cytotoxicity, MKN-45, -HGF [3]: 0.38 nM; IC50, in vitro cytotoxicity, NCI-H596, +HGF [3]: 1.47 nM; IC50, in vitro cytotoxicity, NCI-H596, -HGF [3]: > 10 nM; IC50, in vitro cytotoxicity, PC-3, +HGF [3]: ~1.01 nM
